According to US20050003400A1 (Amgen, published 2005):

B1: murine OPG binding protein (full length, 316 aa, encoded by clone 32D-F3), on the cell surface (ligand)
chain: MRRASRDYGKYLRSSEEMGSGPGVPHEGPLHPAPSAPAPAPPPAASRSMFLALLGLGLGQVVCSIALFLYFRAQMDPNRISEDSTHCFYRILRLHENAGLQDSTLESEDTLPDSCRRMKQAFQGAVQKELQHIVGPQRFSGAPAMMEGSWLDVAQRGKPEAQPFAHLTINAASIPSGSHKVTLSSWYHDRGWAKISNMTLSNGKLRVNQDGFYYLYANICFRHHETSGSVPTDYLQLMVYVVKTSIKIPSSHNLMKGGSTKNWSGNSEFHFYSINVGGFFKLRAGEEISIQVSNPSLLDPDQDATYFGAFKVQDID
notes: Type II transmembrane protein; also called OPGbp; OPG-bp
B2: chimeric ATAR extracellular domain-Fc fusion protein (Fc fusion, UniProt Q92956 39-202, looked up)
chain: LPSCKEDEYPVGSECCPKCSPGYRVKEACGELTGTVCEPCPPGTYIAHLNGLSKCLQCQMCDPAMGLRASRNCSRTENAVCGCSPGHFCIVQDGDHCAACRAYATSSPGQRVQKGGTESQDTLCQNCPPGTFSPNGTLEECQHQTKCSWLVTKAGAGTSSSHWV
notes: extracellular domain; also called sATAR-Fc; ATAR-Fc fusion protein; not shown: human IgG1 Fc domain
B3: recombinant human OPG [22-201]-Fc fusion protein (Fc fusion, UniProt O00300 22-201, looked up)
chain: ETFPPKYLHYDEETSHQLLCDKCPPGTYLKQHCTAKWKTVCAPCPDHYYTDSWHTSDECLYCSPVCKELQYVKQECNRTHNRVCECKEGRYLEIEFCLKHRSCPPGFGVVQAGTPERNTVCKRCPDGFFSNETSSKAPCRKHTNCSVFGLLLTQKGNATHDNICSGNSESTQKCGIDVTL
notes: construct described in U.S. Ser. No. 08/706,945; also called OPG-Fc; OPG Fc fusion protein; not shown: human IgG1 Fc domain
B4: recombinant mouse OPG [22-194]-Fc fusion protein (Fc fusion, UniProt O08712 22-194, looked up)
chain: ETLPPKYLHYDPETGHQLLCDKCAPGTYLKQHCTVRRKTLCVPCPDHSYTDSWHTSDECVYCSPVCKELQSVKQECNRTHNRVCECEEGRYLEIEFCLKHRSCPPGSGVVQAGTPERNTVCKKCPDGFFSGETSSKAPCIKHTNCSTFGLLLIQKGNATHDNVCSGNREATQK
notes: also called OPG-Fc; not shown: Fc domain, detected with anti-human IgG

Legend:
purified human IgG1 Fc = molecular target: T1, purified human IgG1 Fc (human, UniProt P01857-1 104-330 = IgG part, limits assumed); assay: staining of 32D cells, FACS
T1 construct: domain: Fc
Method: Cell lines that grew as adherent cultures in vitro were treated using the following methods: Cells were plated into 24 well tissue culture plates (Falcon), then allowed to grow to approximately 80% confluency. The growth media was then removed, and the adherent cultures were washed with phosphate buffered saline (PBS) (Gibco) containing 1% fetal calf serum (FCS). […] The OPG-Fc fusion protein solution was discarded, and the cells were washed in PBS-FCS solution as described above. The cultures were then exposed to phycoeyrthrin-conguated goat F(ab′) anti-human IgG secondary antibody (Southern Biotechnology Associates Cat. # 2043-09) diluted into PBS-FCS. After a 30-45 min incubation at 0° C., the solution was discarded, and the cultures were washed as described above. The cells were then analyzed by immunofluorescent microscopy to detect cell lines which express a cell surface OPG binding protein.
Suspension cell cultures were analyzed in a similar manner with the following modifications: The diluent and wash buffer consisted of calcium- and magnesium-free phosphate buffered saline containing 1% FCS. […] The cells were then analyzed by fluorescence activated cell sorting (FACS) using a Becton Dickinson FACscan.

[1] = molecular target: B1; assay: immunostaining of COS-7 cells transfected with 32D-F3
Method: Arrayed pools of 32D cDNA expression library were individually lipofected into COS-7 cultures, then assayed for the acquisition of a cell surface OPG binding protein. To do this, COS-7 cells were plated at a density of 1×10⁶ per ml in six-well tissue culture plates (Costar), then cultured overnight in DMEM (Gibco) containing 10% FCS. Approximately 2 μg of plasmid DNA from each pool was diluted into 0.5 ml of serum-free DMEM, then sterilized by centrifugation through a 0.2 μm Spin-X column (Costar). Simultaneously, 10 μl of Lipofectamine (Life Technologies Cat # 18324-012) was added to a separate tube containing 0.5 ml of serum-free DMEM. The DNA and Lipofectamine solutions were mixed, and allowed to incubate at RT for 30 min. The COS-7 cell cultures were then washed with serum-free DMEM, and the DNA-lipofectamine complexes were exposed to the cultures for 2-5 hr at 37° C. After this period, the media was removed, and replaced with DMEM containing 10% FCS. The cells were then cultured for 48 hr at 37° C.
Using this approach, a total of approximately 300,000 independent 32D cDNA clones were screened, represented by 300 transfected pools of 1000 clones each. A single well was identified that contained cells which acquired the ability to be specifically decorated by the OPG-Fc fusion protein. […]

[2] = molecular target: B1; assay: staining of 32D cells with 5 ug/ml OPG-Fc and PE anti-human IgG, FACS

binding result [2]	Binder	further results
–	B1	binding result (purified human IgG1 Fc): no binding
–	B2	binding result [1]: no binding
binds	B3	–
binds	B4	–
